Among the data in patent US20200262910A1 (SINGAPORE HEALTH SERVICES PTE, published 2020) are Kd, koff and kon values, retold here.

In assay [1] the target is T1, Human IL11RA (10252-H08H, SinoBiological) (human, UniProt Q14626 23-365).
T1 construct: also called hIL11RA
T1 sequence: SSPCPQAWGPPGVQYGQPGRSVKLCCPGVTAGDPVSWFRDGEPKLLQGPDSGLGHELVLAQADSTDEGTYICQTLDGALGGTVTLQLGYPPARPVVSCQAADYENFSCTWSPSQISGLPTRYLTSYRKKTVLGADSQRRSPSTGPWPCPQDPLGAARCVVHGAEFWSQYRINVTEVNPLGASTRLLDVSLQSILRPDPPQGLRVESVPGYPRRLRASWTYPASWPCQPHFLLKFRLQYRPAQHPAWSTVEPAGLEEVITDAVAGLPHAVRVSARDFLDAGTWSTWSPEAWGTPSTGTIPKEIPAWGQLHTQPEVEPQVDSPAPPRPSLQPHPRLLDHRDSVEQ
Description: SPR (BIAcore T200): ligand hIL11 immobilized, analyte hIL11RA, 1:1 Langmuir fit. The method, then:
(§1) SPR measurements were performed on a BIAcore T200 (GE Healthcare) at 25° C. Buffers were degassed and filter-sterilized through 0.2 μm filters prior to use. RhIL11 or rmIl11 was immobilized onto a carboxymethylated dextran (CM5) sensor chip using standard amine coupling chemistry. For kinetic analysis, a concentration series (3.125 nM to 100 nM) of human IL11RA or mouse Il11ra was injected over the rhIL11, rmIl11 and reference surfaces at a flow rate of 40 μl min⁻¹. All the analytes were dissolved in HBS-EP+ (BR100669, GE Healthcare) containing 1 mg ml⁻¹ BSA. The association and dissociation were measured for 150 s and 200 s respectively. After each analyte injection, the surface was regenerated by a 30 s injection of Glycine pH2.5, followed by a 5 min stabilisation period. All sensorgrams were aligned and double-referenced. Affinity and kinetic constants were determined by fitting the corrected sensorgrams with the 1:1 Langmuir model using BIAevaluation v3.0 software (GE Healthcare). The equilibrium binding constant KD was determined by the ratio of the binding rate constants kd/ka.
On the technique in general: SPR reads the build-up and loss of mass on a sensor chip optically.

In assay [2] the target is T2, Mouse IL11RA (50075-M08H, SinoBiological); mouse interleukin 11 receptor alpha chain 1 (mouse, UniProt Q64385 24-367).
T2 construct: also called mIL11RA1; IL11RA1
T2 sequence (looked up): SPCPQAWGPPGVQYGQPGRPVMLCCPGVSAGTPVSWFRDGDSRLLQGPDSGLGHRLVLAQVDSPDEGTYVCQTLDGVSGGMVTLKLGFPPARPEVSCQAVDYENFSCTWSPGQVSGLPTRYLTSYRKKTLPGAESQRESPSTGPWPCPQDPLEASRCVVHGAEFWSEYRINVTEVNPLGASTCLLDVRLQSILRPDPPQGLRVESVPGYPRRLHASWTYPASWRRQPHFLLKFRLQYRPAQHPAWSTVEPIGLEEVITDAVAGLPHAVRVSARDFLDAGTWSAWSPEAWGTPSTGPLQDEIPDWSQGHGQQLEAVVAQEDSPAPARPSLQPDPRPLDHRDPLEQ
Description: SPR (BIAcore T200): ligand hIL11 immobilized, analyte mIL11RA, 1:1 Langmuir fit. How it is done: as §1

In assay [3] the target is T2, Mouse IL11RA (50075-M08H, …). Description: SPR (BIAcore T200), IL11 immobilized on CM5, receptor as analyte, 1:1 Langmuir fit; rhIL11 (human ligand) on mouse IL11RA1. How it is done:
as §1

In assay [4] the target is T1, Human IL11RA (10252-H08H, …). Description: SPR (BIAcore T200, 25 C): rhIL11 immobilized on a CM5 chip, human IL11RA injected as analyte (3.125 to 100 nM), 1:1 Langmuir fit. The method, then: as §1
Assay [5] addresses T2, Mouse IL11RA (50075-M08H, …). Description: SPR (BIAcore T200, 25 C): rhIL11 immobilized on a CM5 chip, mouse IL11RA injected as analyte (3.125 to 100 nM), 1:1 Langmuir fit. The method, then:
as §1

For assay [6] the target is unchanged. Description: SPR (BIAcore T200): ligand mIL11 immobilized, analyte mIL11RA, 1:1 Langmuir fit. How it is done: as §1
The target is the same in assay [7]. Description: SPR (BIAcore T200), IL11 immobilized on CM5, receptor as analyte, 1:1 Langmuir fit; rmIL11 (mouse ligand) on mouse IL11RA1. The method, then: as §1
The target is the same in assay [8]. Description: SPR (BIAcore T200, 25 C): rmIL11 immobilized on a CM5 chip, mouse IL11RA injected as analyte (3.125 to 100 nM), 1:1 Langmuir fit. The method, then:
as §1

Broadly, the Kd is the free concentration of one partner at which half of the binding sites on the other are occupied at equilibrium, for simple one-to-one binding. Higher therefore signals lower affinity. Usually koff stands for the rate constant with which the complex falls apart. In general, kon refers to the rate constant with which the complex forms.

B1: Recombinant human IL11 (rhIL11, UniProtKB:P20809, Genscript) (ligand)
chain: PGPPPGPPRVSPDPRAELDSTVLLTRSLLADTRQLAAQLRDKFPADGDHNLDSLPTLAMSAGALGALQLPGVLTRLRADLLSYLRHVQWLRRAGGSSLKTLEPELGTLQARLDRLLRRLQLLMSRLALPQPPPDPPAPPLAPPSSAWGGIRAAHAILGGLHLTLDWAVRGLLLLKTRL
notes: It was amine-coupled to a CM5 chip in SPR
On to B1, for which the Kd in assay [1] was determined as 45.3 nM; in assay [2], 72.3 nM; in assay [3], 72 nM; in assay [4], 45.3 nM; in assay [5], 72.3 nM. In addition, the figures for the koff in assay [1] and in assay [2] were 0.0204 s⁻¹ and 0.012 s⁻¹, respectively. Further, the figures for the kon in assay [1] and in assay [2] were 451000 M⁻¹ s⁻¹ and 166000 M⁻¹ s⁻¹, respectively.

B2: Recombinant mouse IL11 (rmIL11, UniProtKB: P47873, Genscript) (ligand, UniProt P47873 22-199, looked up)
chain: PGPPAGSPRVSSDPRADLDSAVLLTRSLLADTRQLAAQMRDKFPADGDHSLDSLPTLAMSAGTLGSLQLPGVLTRLRVDLMSYLRHVQWLRRAGGPSLKTLEPELGALQARLERLLRRLQLLMSRLALPQAAPDQPVIPLGPPASAWGSIRAAHAILGGLHLTLDWAVRGLLLLKTRL
notes: Amine-coupled to a CM5 chip in SPR; also called biotinylated mouse Il11
In the case of B2, the values for the dissociation constant Kd in assay [6], in assay [7] and in assay [8] were 94.1 nM, 94 nM and 94.1 nM, respectively. In assay [6], this molecule had a koff of 0.0115 s⁻¹. Besides, the association rate constant (kon) in assay [6] was 122000 M⁻¹ s⁻¹.
